Laboratory results reported in publication PMC7610778 (Science (New York, N.Y.), 2020).
Where two headings read alike, the source gives them in different places. Each block holds one binder with its values, some of them ahead of it.

T1: Atg19-3D (S390D, S391D, S396D) (S. cerevisiae, UniProt P35193 1-415, S390D | S391D | S396D)
T1 sequence: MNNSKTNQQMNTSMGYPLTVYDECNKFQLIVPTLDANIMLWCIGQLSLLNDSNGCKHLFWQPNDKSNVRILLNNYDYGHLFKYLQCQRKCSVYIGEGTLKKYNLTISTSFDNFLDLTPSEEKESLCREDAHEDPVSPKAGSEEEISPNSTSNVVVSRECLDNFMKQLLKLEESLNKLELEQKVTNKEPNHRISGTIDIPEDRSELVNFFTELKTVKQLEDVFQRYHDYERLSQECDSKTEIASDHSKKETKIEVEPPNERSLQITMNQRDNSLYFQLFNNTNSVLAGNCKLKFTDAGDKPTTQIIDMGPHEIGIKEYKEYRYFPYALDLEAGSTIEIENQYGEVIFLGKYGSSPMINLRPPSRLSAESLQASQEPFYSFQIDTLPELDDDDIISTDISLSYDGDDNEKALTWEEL

B1: mEGFP-Atg21 (natural protein)
chain: MKVLQFNQDATCCVVAASSHQISIFNCDPFGKCFEIDTKNSKKKTSNNNGSASNSESRNNEESILITNGSRDRTDAEEEEDNEDNALVTGNILKEGEFVIEMLFSTSLIAIADRGQGLNKGKKLKIVNTKRKCTICEIVFPHEIVDVVMNRKRMCVLLESDQIFIYDISCMKPLETIDLWEDHYKRSQANSFSNASNTGTLEGDSANLNRVATNLLANATQKSVNGSNPSVRTRRNSLRSKIRPRMVLSNDDRSILCFTAYSSPKKNKPNSEALYDVVIYDTLNVTPVNYLNSVHKGNVACLAVSHDGKLLATASDKGTIIRVFHTGVDSDYMSSRSLFKEFRRGTRLCNLYQLAFDKSMTMIGCVGDTDTIHLFKLDDASNSLPGDNSSNGHWNEEEYILASNSNPSMGTPKEIPLSKPRIANYFSKKIKSSIPNQNLSRNFAYITVNESNRSCLGFPDEFPNQVYIASDDGTFSIYSIPSKPGECVLTKNNKFT
B2: Atg18-mEGFP (natural protein)
chain: MSDSSPTINFINFNQTGTCISLGTSKGFKIFNCEPFGKFYSEDSGGYAIVEMLFSTSLLALVGIGDQPALSPRRLRIINTKKHSIICEVTFPTSILSVKMNKSRLVVLLQEQIYIYDINTMRLLHTIETNPNPRGLMAMSPSVANSYLVYPSPPKVINSEIKAHATTNNITLSVGGNTETSFKRDQQDAGHSDISDLDQYSSFTKRDDADPTSSNGGNSSIIKNGDVIVFNLETLQPTMVIEAHKGEIAAMAISFDGTLMATASDKGTIIRVFDIETGDKIYQFRRGTYATRIYSISFSEDSQYLAVTGSSKTVHIFKLGHSMSNNKLDSDDSNMEEAAADDSSLDTTSIDALSDEENPTRLAREPYVDASRKTMGRMIRYSSQKLSRRAARTLGQIFPIKVTSLLESSRHFASLKLPVETNSHVMTISSIGSPIDIDTSEYPELFETGNSASTESYHEPVMKMVPIRVVSSDGYLYNFVMDPERGGDCLILSQYSILMD
B3: Atg12–Atg5-Atg16-mCherry complex (complex)
chain 1: MSRILESENETESDESSIISTNNGTAMERSRNNQELRSSPHTVQNRLELFSRRLSQLGLASDISVDQQVEDSSSGTYEQEETIKTNAQTSKQKSHKDEKNIQKIQIKFQPIGSIGQLKPSVCKISMSQSFAMVILFLKRRLKMDHVYCYINNSFAPSPQQNIGELWMQFKTNDELIVSYCASVAFG
chain 2: MNDIKQLLWNGELNVLVSIDPSFLMKGSPREIAVLRIRVPRETYLVNYMPLIWNKIKSFLSFDPLTDSEKYFWFEHNKTPIPWNYPVGVLFDCLAGKSATFTTSFENQVKDVLTFLRIHLVMGDSLPPTIIPIASSKTQAEKFWFHQWKQVCFILNGSSKAIMSLSVNEARKFWGSVITRNFQDFIEISNKISSSRPRHIPLIIQTSRTSGTFRISQPTISMTGVNPTLKDIEGDILDVKEGINGNDVMVICQGIEIPWHMLLYDLYSKLRSFDGFLYITLVPIKGGDKASSEL
chain 3: MGNFIITERKKAKEERSNPQTDSMDDLLIRRLTDRNDKEAHLNELFQDNSGAIGGNIVSHDDALLNTLAILQKELKSKEQEIRRLKEVIALKNKNTERLNDELISGTIENNVLQQKLSDLKKEHSQLVARWLKKTEKETEAMNSEIDGTK
modifications: Atg12–Atg5 conjugate | Atg12–Atg5 conjugate

Key:
Test in all cases: pull-down
[1] = molecular target: B3
[2] = molecular target: T1, Atg19-3D (S390D, S391D, S396D)
[3] = molecular target: B3; remark: listed apart in the source
[4] = molecular target: Atg2-GFP-Atg18-CBP complex (yeast (S. cerevisiae), UniProt P53855;P43601)
Chain of Atg2-GFP-Atg18-CBP complex (P53855 whole entry, one chain of several): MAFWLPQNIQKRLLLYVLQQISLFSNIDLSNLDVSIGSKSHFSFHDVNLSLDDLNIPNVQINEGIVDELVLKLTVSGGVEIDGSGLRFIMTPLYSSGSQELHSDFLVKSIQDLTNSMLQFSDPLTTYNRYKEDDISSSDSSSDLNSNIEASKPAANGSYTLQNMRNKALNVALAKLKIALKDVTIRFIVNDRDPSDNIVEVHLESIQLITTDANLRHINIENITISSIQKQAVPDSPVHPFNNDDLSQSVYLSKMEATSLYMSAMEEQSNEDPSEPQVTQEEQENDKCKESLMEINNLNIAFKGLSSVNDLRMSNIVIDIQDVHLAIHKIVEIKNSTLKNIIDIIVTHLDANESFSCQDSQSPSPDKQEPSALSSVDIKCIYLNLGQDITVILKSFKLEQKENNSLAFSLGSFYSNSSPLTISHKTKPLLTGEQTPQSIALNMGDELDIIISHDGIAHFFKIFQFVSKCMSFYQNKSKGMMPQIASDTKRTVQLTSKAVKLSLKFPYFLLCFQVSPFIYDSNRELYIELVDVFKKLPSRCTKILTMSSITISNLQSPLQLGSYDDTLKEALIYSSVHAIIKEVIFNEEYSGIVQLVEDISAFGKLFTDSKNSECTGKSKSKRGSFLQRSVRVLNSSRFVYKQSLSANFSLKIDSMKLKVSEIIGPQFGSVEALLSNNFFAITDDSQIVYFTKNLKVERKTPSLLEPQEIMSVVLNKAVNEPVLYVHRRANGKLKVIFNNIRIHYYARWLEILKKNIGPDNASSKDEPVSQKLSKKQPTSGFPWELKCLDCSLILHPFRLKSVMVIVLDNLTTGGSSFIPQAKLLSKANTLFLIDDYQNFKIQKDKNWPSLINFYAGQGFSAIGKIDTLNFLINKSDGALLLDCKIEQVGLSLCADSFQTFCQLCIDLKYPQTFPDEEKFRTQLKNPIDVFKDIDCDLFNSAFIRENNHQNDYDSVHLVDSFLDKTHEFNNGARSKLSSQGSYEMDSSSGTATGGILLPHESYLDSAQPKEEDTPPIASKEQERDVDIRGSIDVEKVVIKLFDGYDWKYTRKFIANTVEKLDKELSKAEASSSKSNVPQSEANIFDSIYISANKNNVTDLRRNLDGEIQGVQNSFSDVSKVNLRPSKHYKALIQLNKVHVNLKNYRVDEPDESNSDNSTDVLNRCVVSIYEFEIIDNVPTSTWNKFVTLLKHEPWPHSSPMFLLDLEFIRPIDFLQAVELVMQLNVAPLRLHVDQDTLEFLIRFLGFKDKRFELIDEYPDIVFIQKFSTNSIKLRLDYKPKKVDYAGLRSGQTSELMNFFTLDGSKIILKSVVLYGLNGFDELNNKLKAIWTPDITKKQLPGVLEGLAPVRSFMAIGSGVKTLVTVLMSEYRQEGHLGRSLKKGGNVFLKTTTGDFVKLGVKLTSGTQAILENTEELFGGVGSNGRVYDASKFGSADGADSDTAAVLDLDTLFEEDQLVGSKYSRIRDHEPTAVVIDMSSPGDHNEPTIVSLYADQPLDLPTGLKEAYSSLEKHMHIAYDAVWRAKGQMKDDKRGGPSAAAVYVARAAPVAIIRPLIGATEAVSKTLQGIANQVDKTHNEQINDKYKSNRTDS

[5] = molecular target: Atg2-mEGFP (yeast (S. cerevisiae), UniProt P53855 1-1592)
Chain of Atg2-mEGFP (P53855 whole entry): as the sequence (P53855 whole entry, one chain of several) above

Binder: B1
binding result [1]: binds

binding result [2]: binds
Binder: MEEQREILEQLKKTLQMLTVEPSKNNQIANEEKEKKENENS (domain or fragment) [GST-prApe1 (1-41)]

Binder: B2
binding result [3]: binds

Binder: B3
binding result [4]: binds
binding result [5]: binds
